Key:
normal human plasma [1] = assay: PT; type: biochemical; conditions: heparin control 100 µg/ml; not shown
Procedure: (§1) aPTT and PT were evaluated on a STart 4 stago coagulometer (Diagnostica Stago, Parsippany, NJ, USA). Freeze-dried, citrated, normal human plasma was resuspended in ultra-pure water. […] Then, 50 µl of pre-warmed aPTT reagent (STA PTT; Diagnostica Stago, Asnières sur Seine, France) was added and incubated for an additional 2 min. CaCl2 (50 µl at 25 mM) was added to start reactions. […] Then, 100 µl of the PT reagent (NEOplastine CI plus; Diagnostica Stago) was added. Time for clot formation was recorded in duplicate.

normal human plasma [2] = assay: aPTT; type: biochemical; conditions: heparin control 10 µg/ml; not shown
Procedure: as §1

elastase = biological target: T1, elastase (Homo sapiens, UniProt P08246); conditions: pathologic conditions associated with neutrophil dysfunction; ref [22]; cited from earlier work
T1 construct: purchased Elastin Products Company, Inc. (Owensville, MO, USA)
T1 sequence (P08246 30-267): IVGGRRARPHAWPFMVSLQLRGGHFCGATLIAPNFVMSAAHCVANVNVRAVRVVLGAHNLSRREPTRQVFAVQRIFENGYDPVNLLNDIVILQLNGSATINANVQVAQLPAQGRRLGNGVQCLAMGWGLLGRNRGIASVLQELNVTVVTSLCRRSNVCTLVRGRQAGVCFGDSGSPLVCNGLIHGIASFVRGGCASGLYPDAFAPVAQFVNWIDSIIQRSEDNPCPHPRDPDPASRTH
Text: Neutrophils also release granule contents containing enzymes such as elastase, proteinase-3, and cathepsin G. Elastase, a particularly inflammatory enzyme, interferes with thrombomodulin function, and cleaves TF pathway inhibitor (TFPI), the physiological inhibitor of the extrinsic pathway. […] Elastase also induces proteinase-activated receptor activation, contributes to cytokine production and processing, inactivates metalloprotease inhibitors, deg ...

neutrophil = conditions: migration induced by PAF, fMLP or IL-8; ref [49]–[51]; cited from earlier work
Text: Once released, serine protease may bind to the cell surface and remains relatively inaccessible to inhibitors, in contrast to soluble enzymes, [48]. Elastase and other serine proteases reportedly modulate several functions of neutrophils, including chemokine activation and degradation, cell recruitment, receptor activation, activation of lymphocytes, NET formation, and cleavage of adhesion molecules, apoptotic proteins, and anticoagulants. Assay ...

inflamed microvessels = system: inflamed microvessels; set-up: method as in PMID 8400269; conditions: intravital microscopy of inflamed microvessels; ref [50]; cited from earlier work
bacterial strains = assay: Minimum inhibitory concentration (MIC), control over all strains; type: cell-based; conditions: ciprofloxacin quality control, 1024-0 ng/ml, each strain; not shown
neutrophils [3] = assay: Neutrophil-induced coagulation; type: cell-based, human; conditions: neutrophils with PMA 50 nM, 3 h; 370 sec without PMA
Procedure: (§2) A) Platelet aggregation. Washed human platelets were stimulated with elastase only (500 nM, left panel), or cathepsin G only (110 nM, middle tracing), or elastase followed by cathepsin G (right tracing). […] Aggregation response was monitored by turbidimetry using a Lumi-Aggregometer. D) TFPI cleavage. […] After 2 h, reactions were stopped by addition of LDS loading buffer (under reducing conditions, 10 mM DTT), boiled for 5 min, and loaded in 4–12% Nu-PAGE gel. Gels were Coomassie Blue-stained. E) Neutrophil-induced coagulation. […] Fifty µl of this suspension was added to 50 µl of plasma, and reactions were started by addition of CaCl2 (12.5 mM, final concentration)(*, p<0.05).
(§3) Whole blood (5 mL collected in 0.5 mL of 3.2% sodium citrate) from healthy donors was diluted in an equal volume of PBS, layered over 5 mL of HISTOPAQUE solution (10771, Sigma Aldrich), and centrifuged for 40 min, at 400×g, at room temperature. The lower interphase having granulocytes was collected and transferred to a 15-ml Falcon tube and resuspended in 10 ml ammonium chloride lysis buffer (1.7 M NH4Cl, […], 1 mM EDTA) to lyse red blood cells. Lysis was carried out twice followed by centrifugation for 10 min at 400×g. Neutrophils were washed with PBS and resuspended at 1×10^6 cells/mL in high glucose DMEM (GIBCO). Neutrophils were kept on ice. […]

neutrophils [4] = assay: NETs formation; type: cell-based, human; conditions: PMA 5 nM, 3 h, no inhibitor
Procedure: Left panel, non-activated neutrophil (no PMA). Formation of NETs was visualized under confocal microscopy, using antibody against citrullinated histone. Representative experiment is shown (4 different donors). B) Quantification. Performed as described in Methods.
as §3, with “400×g.” for “400×g. Neutrophils were washed with PBS and resuspended at 1×10^6 cells/mL in high glucose DMEM (GIBCO). Neutrophils were kept on ice.”
Cells were fixed with 500 µl of 4% paraformaldehyde (final concentrations) for 10 min, washed 3 times with PBS and incubated for 10 min with blocking solution (PBS, 10%FBS, 5 mg/ml BSA). […] NETs were quantified according to Farley et al. Briefly, NETs were identified on digitalized images as Hoechst-positive fibrils emanating from cells with an overall length at least twice as long as the cell diameter and were counted for at least two fields of view per variable. Results were expressed as the percentage of NETs/total number of granulocytes.

neutrophil elastase [5] = biological target: T2, neutrophil elastase (Homo sapiens, UniProt P08246); assay: enzyme inhibition assay (chromogenic substrate, Cheng-Prusoff)
T2 chain: T1 sequence (P08246 30-267)

neutrophil elastase [6] = biological target: T2, neutrophil elastase; assay: SPR
washed human platelets [7] = assay: Platelet aggregation, elastase followed by cathepsin G; type: cell-based; conditions: elastase 500 nM, no inhibitor
Procedure: as §2
(§4) Platelet-rich plasma was obtained by plateletpheresis from medication-free platelet donors at the Department of Transfusion Medicine (NIH blood bank). Washing of platelets and platelet aggregation were performed in a Lumi-aggregometer (Chronol-Log, Haverstown, MD, USA) as described, [87].

[8] = system: human neutrophil elastase; assay: TFPI cleavage by elastase (SDS/PAGE); type: biochemical; conditions: elastase 0.8 µg/ml, TFPI 1 µg, 2 h at RT, no inhibitor
Procedure: as §2
After 2 h at RT, reactions were stopped by addition of Laemmli buffer (supplemented with dithiothreitol) and boiled for 5 min. Proteins were separated by 4% to 12% NuPAGE (MES buffer); gels were stained with Coomassie Blue R-250 and destained with 40% methanol. See Blue molecular weight (mol. wt.) markers were used (Invitrogen).

washed human platelets [9] = assay: Platelet aggregation, cathepsin G-induced; type: cell-based; conditions: low dose cathepsin G 110 nM, no inhibitor
Procedure: as §2, §4

monocyte-like cells = system: monocyte-like cells; set-up: method as in PMID 16352738; conditions: internalized by monocyte-like cells, ref [57], cited from earlier work
NETs formation = system: NETs formation; set-up: method as in 2 sources, one per row (each row's own in cited_ref): ref [38], [55] = [38]; PMID 20974816; doi:10.1083/jcb.201006052; 38 Papayannopoulos V , Metzler KD , Hakkim A , Zychlinsky A ( 2010 ) Neutrophil elastase and myeloperoxidase regulate the formation of neutrophil extracellular traps . J Cell Biol 191 : 677 – 691 . 20 || [55]; PMID 23635526; doi:10.1159/000348676; 55 Braian C , Hogea V , Stendahl O ( 2013 ) Mycobacterium tuberculosis- induced neutrophil extracellular traps activate human macrophages . J Innate Immun 5 : 591 – 602 . 23635526 10.1159/000348676 PM ||| ref [56] = [56]; PMID 23002442; doi:10.4049/jimmunol.1201167; 56 Farley K , Stolley JM , Zhao P , Cooley J , Remold-O'Donnell E ( 2012 ) A serpinB1 regulatory mechanism is essential for restricting neutrophil extracellular trap generation . J Immunol 189 : 4574; conditions: exogenously added, internalized, translocates into nucleus; ref [56]; cited from earlier work

heparin
PT (normal human plasma [1]): prolonged | aPTT (normal human plasma [2]): prolonged

CC(C)(C)C(=O)Oc1ccc(S(=O)(=O)Nc2ccccc2C(=O)NCC(=O)O)cc1 [sivelestat]
clinical trial results (elastase): mixed results

CO[C@H]1C(=O)N2C(C(=O)N3CCC[C@H]3C(=O)O)=C(COC(C)=O)CS(=O)(=O)[C@H]12 [L658758, reference compound]
chemotactic neutrophil functions (neutrophil): blocks chemotactic neutrophil functions | neutrophil transmigration (inflamed microvessels): inhibition of neutrophil transmigration

Cc1c(-c2ccnn2C)cc(C(=O)NCc2ccc(S(C)(=O)=O)cn2)c(=O)n1-c1cccc(C(F)(F)F)c1 [AZD9668]
clinical trial results (elastase): mixed results

O=C(O)c1cn(C2CC2)c2cc(N3CCNCC3)c(F)cc2c1=O [ciprofloxacin]
MIC (bacterial strains): < 1 µg/mL

CCCCCCCCCCCCCC(=O)O[C@@H]1[C@@H](C)[C@@]2(O)[C@@H](C=C(CO)C[C@]3(O)C(=O)C(C)=C[C@@H]23)[C@@H]2C(C)(C)[C@]12OC(C)=O [PMA, Phorbol 12-myristate 13-acetate, reference compound]
clotting time (neutrophils [3]): 250 s | induction of NETs (neutrophils [4]): induces a strong response

B1: Agaphelin 1-58 (protein)
chain: DINSEMATCACQLIYRPVCASNNESYSNECVLKCASETPTGRSIGLHKVKDGNCNGEF
Ki (neutrophil elastase [5]): 9.22 nM | Kd (neutrophil elastase [6]): 17.4 nM

B2: elastase: neutrophil elastase, enzyme used as stimulus (protein, UniProt P08246 30-267, looked up)
Neutrophil elastase: T1 sequence (P08246 30-267)
shape change or aggregation by elastase only (washed human platelets [7]): does not promote shape change or aggregation | TFPI cleavage by elastase [8]: cleaves TFPI

B3: cathepsin G: neutrophil protease used as platelet agonist (protein, UniProt P08311 21-244, looked up)
Cathepsin G: IIGGRESRPHSRPYMAYLQIQSPAGQSRCGGFLVREDFVLTAAHCWGSNINVTLGAHNIQRRENTQQHITARRAIRHPQYNQRTIQNDIMLLQLSRRVRRNRNVNPVALPRAQEGLRPGTLCTVAGWGRVSMRRGTDTLREVQLRVQRDRQCLRIFGSYDPRRQICVGDRRERKAAFKGDSGGPLLCNNVAHGIVSYGKSSGVPPEVFTRVSSFLPWIRTTMRS
platelet activation by cathepsin G only (washed human platelets [9]): activate platelets

B4: Eglin C: pharmacologic inhibitor of elastase (protein, UniProt P01051 1-70, looked up)
Eglin C: TEFGSELKSFPEVVGKTVDQAREYFTLHYPQYDVYFLPEGSPVTLDLRYNRVRVFYNPGTNVVNHVPHVG
chemotactic neutrophil functions (neutrophil): blocks chemotactic neutrophil functions | neutrophil transmigration (inflamed microvessels): inhibition of neutrophil transmigration

B5: secretory leukocyte proteinase inhibitor (protein, UniProt P03973 26-132, looked up)
Antileukoproteinase: SGKSFKAGVCPPKKSAQCLRYKKPECQSDWQCPGKKRCCPDTCGIKCLDPVDTPNPTRRKPGKCPVTYGQCLMLNPPNFCEMDGQCKRDLKCCMGMCGKSCVSPVKA
chemotactic neutrophil functions (neutrophil): blocks chemotactic neutrophil functions | p65 binding (monocyte-like cells; binds NF-κB binding sites): inhibit p65 binding | TNF-α and IL-8 generation (monocyte-like cells): promote inhibition of TNF-α and IL-8 generation

B6: serpin B1: exogenously added elastase inhibitor (protein, UniProt P30740 1-379, looked up)
Leukocyte elastase inhibitor: MEQLSSANTRFALDLFLALSENNPAGNIFISPFSISSAMAMVFLGTRGNTAAQLSKTFHFNTVEEVHSRFQSLNADINKRGASYILKLANRLYGEKTYNFLPEFLVSTQKTYGADLASVDFQHASEDARKTINQWVKGQTEGKIPELLASGMVDNMTKLVLVNAIYFKGNWKDKFMKEATTNAPFRLNKKDRKTVKMMYQKKKFAYGYIEDLKCRVLELPYQGEELSMVILLPDDIEDESTGLKKIEEQLTLEKLHEWTKPENLDFIEVNVSLPRFKLEESYTLNSDLARLGVQDLFNSSKADLSGMSGARDIFISKIVHKSFVEVNEEGTEAAAATAGIATFCMLMPEENFTADHPFLFFIRHNSSGSILFLGRFSSP
NETs formation (NETs formation): inhibits NETs formation
